“And” between values parts separate entries of the source, which are not always exact repeats. Equal entries are not always repeated. One block for each binder: values may come before it.
What was measured:
[1] = target: T1, WT; test: flow cytometry on ConA-stimulated spleen cells of WT mice, mCD3+ T cells
T1 construct: also called T cells of wild-type (WT) mice; mouse TNFR2 on the cell membrane
T1 chain: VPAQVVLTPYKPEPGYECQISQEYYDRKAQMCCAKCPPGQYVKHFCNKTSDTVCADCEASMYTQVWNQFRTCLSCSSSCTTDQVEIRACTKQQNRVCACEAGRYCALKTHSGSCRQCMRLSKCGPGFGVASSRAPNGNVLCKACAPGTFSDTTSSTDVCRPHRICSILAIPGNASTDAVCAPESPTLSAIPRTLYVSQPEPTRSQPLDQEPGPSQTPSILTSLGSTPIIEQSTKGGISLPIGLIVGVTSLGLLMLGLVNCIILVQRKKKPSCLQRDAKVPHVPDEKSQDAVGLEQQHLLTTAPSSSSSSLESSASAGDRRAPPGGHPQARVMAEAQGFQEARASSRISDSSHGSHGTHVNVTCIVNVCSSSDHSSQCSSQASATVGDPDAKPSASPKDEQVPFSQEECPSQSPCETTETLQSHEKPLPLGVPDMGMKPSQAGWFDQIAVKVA
Protocol: (§1) The cells were stained again with Cy-3 anti-human IgG and FITC anti-mCD3 (BD, 555274) after washing, under the same incubation conditions. After washing, the detection was performed.

[2] = target: T2, human TNFR2 on the cell membrane (human, UniProt P20333 23-461); test: flow cytometry, Jurkat-TNFR2 cells
T2 construct: whole, on cells; One molecule for all cell formats; also called TNFR2-CHO cells; CHO-TNFR2
T2 sequence (looked up): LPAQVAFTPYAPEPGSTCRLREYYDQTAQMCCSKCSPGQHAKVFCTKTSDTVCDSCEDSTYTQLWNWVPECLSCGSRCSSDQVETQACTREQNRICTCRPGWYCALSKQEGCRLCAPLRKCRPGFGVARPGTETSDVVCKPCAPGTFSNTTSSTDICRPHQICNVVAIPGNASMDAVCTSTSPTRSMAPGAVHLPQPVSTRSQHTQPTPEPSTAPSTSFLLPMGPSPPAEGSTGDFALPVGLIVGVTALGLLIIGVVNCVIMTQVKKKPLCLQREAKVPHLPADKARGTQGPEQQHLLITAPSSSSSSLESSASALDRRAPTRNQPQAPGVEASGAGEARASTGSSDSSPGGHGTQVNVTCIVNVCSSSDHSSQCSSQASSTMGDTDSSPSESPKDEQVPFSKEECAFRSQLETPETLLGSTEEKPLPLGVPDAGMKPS
Protocol: (§2) Purified human-mouse monoclonal antibodies against TNFR2 were co-cultured with TNFR2 positive Jurkat cells (Jurkat cells were transfected with pcDNA3.4-TNFR2 plasmid using conventional methods, and after screening, stable and highly expressed TNFR2 Jurkat cell lines were obtained) and stained. The antibody binding intensity was analyzed by flow cytometry. The specific steps are as follows: Jurkat-TNFR2 was counted, centrifuged, resuspended, then added to a 96-deep well plate, and the supernatant was discarded. The anti-TNFR2 antibody was gradient diluted, and added to the 96-deep well plate, After incubation and wash, the secondary antibody FITC-anti-human IgG (Abcam: 6854) was added, and the samples were detected using Beckman CytoFLEX.

[3] = target: T2, human TNFR2 on the cell membrane; test: flow cytometry on Jurkat-TNFR2 cells
Protocol: as §2

[4] = target: T3, TNFR2-His (Sino Biological, 10417-H08H, NP_001057.1 Met1-Asp257, with multi-histidine tag expressed on … (human, UniProt P20333 23-257)); test: competition ELISA on coated TNFR2-His against biotin-labeled TNFα fusion protein at fixed concentration
T3 construct: range 1-257; Bought protein; also called recombinant human TNFR2 protein; TNFR2-His antigen; not shown: C-terminal multi-histidine tag
T3 sequence (looked up): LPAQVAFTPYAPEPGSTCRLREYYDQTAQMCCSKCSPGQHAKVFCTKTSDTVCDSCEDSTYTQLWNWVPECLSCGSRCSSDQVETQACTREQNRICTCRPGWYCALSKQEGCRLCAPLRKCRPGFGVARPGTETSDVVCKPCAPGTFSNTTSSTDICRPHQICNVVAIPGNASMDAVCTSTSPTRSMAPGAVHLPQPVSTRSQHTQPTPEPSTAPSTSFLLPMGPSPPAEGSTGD
Protocol: (§3) The ELISA plate was coated with TNFR2-His antigen (Sino Biological, 10417-H08H, Assessment #NP_001057.1. Met1-Asp257, with multi-histidine tags expressed on C-terminus) and blocked, added with the gradient diluted TNFR2 monoclonal antibodies and biotin-labeled TNFα fusion protein of fixed concentration for incubation, then added with the secondary antibody Ap-Strepavidin (Herobio, 510401) for incubation. After development, the detection was performed using microplate reader.

[5] = target: T2, human TNFR2 on the cell membrane; test: competition flow cytometry, TNFR2 positive cells, TNFα fusion protein at fixed concentration
Protocol: Purified anti-human TNFR2 human-mouse monoclonal antibodies were co-cultured with TNFR2 positive cells and stained. The antibody binding intensity was analyzed by flow cytometry. The specific steps are as follows: cells were counted, centrifugated, resuspended, then added to a 96-deep well plate, and the supernatant was discarded. Gradient diluted anti-TNFR2 antibodies and TNFα fusion protein of fixed concentration were added. After incubation and wash, the secondary antibody PE-streptavidin (Biogen, 405203) was added for incubation, and the samples were detected using Beckman CytoFLEX.

[6] = target: T3, TNFR2-His (Sino Biological, 10417-H08H, …); test: ELISA, plate coated with TNFR2-His
Protocol: To determine whether the human-mouse chimeric TNFR2 monoclonal antibody of the present invention can bind to recombinant human TNFR2 protein, in vitro ELISA test was conducted. Similar to the method described above, The plate was coated with TNFR2-His (Sino Biological, 10417-H08H, Assessment #NP_001057.1.Met1-Asp257, with multi-histidine tag expressed on C-terminus) antigens, and blocked with BSA, then added with gradient diluted human-mouse chimeric TNFR2 monoclonal antibodies for incubation. Then, secondary antibody Ap-anit-human IgG Fc (JacksonImmuno Research, 109-055-098) was added for incubation After TMB development, ELISA reading was performed.

[7] = target: T3, TNFR2-His (Sino Biological, 10417-H08H, …); test: ELISA, coated TNFR2-His
In short: (§4)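 ELISA on plates coated with recombinant human TNFR2 carrying a C-terminal His tag, then blocked. Serially diluted antibodies were incubated, followed by an enzyme-labelled anti-IgG secondary antibody. Plates were developed with TMB and read on a microplate reader. EC50 is reported from the dilution series.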

[8] = target: T3, TNFR2-His (Sino Biological, 10417-H08H, …); test: competition ELISA, coated TNFR2-His, biotin-labeled TNFα fusion protein at fixed concentration
Protocol: as §3

[9] = target: T2, human TNFR2 on the cell membrane; test: flow cytometry on ConA-stimulated spleen cells of hTNFR2-KI mice, mCD3+ T cells
Protocol: as §1

[10] = target: T3, TNFR2-His (Sino Biological, 10417-H08H, …); test: BLI, antibody captured on AHC probe, TNFR2 in solution
Protocol: The GATOR (ProbeLife) detection instrument and AHC (Pall, 185064), Human antibody Capture probe were used to detect the dissociation constant (Kd) of human-mouse chimeric TNFR2 monoclonal antibody.
The human-mouse chimeric TNFR2 monoclonal antibodies were diluted to 50 nM in binding buffer (Q buffer [PBS (10 mM PH7.4)+0.02% Tween 20+0.2% BSA). The recombinant human TNFR2 protein was diluted in Q buffer with a 2-fold gradient starting from the highest concentration of 100 nM. The kinetic association assay was conducted by placing the antibody capture sensor in the continuously diluted antigen solutions mentioned above. The Octet Data Acquisition software was pened and the New Kinetics Experiment-Basic Kinetics mode was selected.

[11] = target: T2, human TNFR2 on the cell membrane; test: flow cytometry on human PBMC, CD3+ T cells
Protocol: Purified anti-human TNFR2 human-mouse chimeric monoclonal antibodies were co-cultured with PBMC cells (Oricells) and stained. The binding of the antibody was analyzed by flow cytometry. The specific steps are as follows: PBMC cells (Oricells) were counted, centrifuged, resuspended, then added to a 96-deep well plate, and the supernatant was discarded. Diluted anti-TNFR2 monoclonal antibodies were added.

[12] = target: T2, human TNFR2 on the cell membrane; test: flow cytometry on CHO-TNFR2 cells
In short: (§5)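 Flow cytometry on CHO cells stably overexpressing human TNFR2, made by pcDNA3.4-TNFR2 transfection, drug selection and single-clone sorting. Cells in 96-deep-well plates were incubated with serially diluted antibodies, washed and stained with a fluorescent anti-IgG secondary antibody. Samples were read on a Beckman CytoFLEX. EC50 is reported from the dilution series.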

[13] = target: T3, TNFR2-His (Sino Biological, 10417-H08H, …); test: BLI, antibody captured on AHC probe, TNFR2-His in solution
In short: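 Kon, koff and Kd were derived from kinetic association measurements by bio-layer interferometry on an Octet in Basic Kinetics mode. Antibody-capture sensors held antibodies at 50 nM in Q buffer (10 mM PBS pH 7.4, 0.02% Tween 20, 0.2% BSA). These sensors were then placed in recombinant human TNFR2, diluted 2-fold in Q buffer from a top concentration of 100 nM.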

[14] = target: T2, human TNFR2 on the cell membrane; test: flow cytometry, CHO-TNFR2 cells
In short: as §5

[15] = target: T3, TNFR2-His (Sino Biological, 10417-H08H, …); test: ELISA, plate coated with TNFR2-His; remark: listed apart in the source
In short: as §4

binding result [1]: no binding
percent of cells in the upper right quadrant (Q2-UR, mCD3+ and anti-hIgG+) [1]: 0.9%
EC50 [2]: 0.024 µg/mL
EC50 [3]: 0.0243 µg/mL
IC50 [4]: 0.229 µg/mL and 1.53 nM
IC50 [5]: 0.417 µg/mL
EC50 [6]: 0.0476 µg/mL
EC50 [7]: 0.319 nM
IC50 [8]: 0.225 µg/mL
percent of cells in the upper right quadrant (Q2-UR, mCD3+ and anti-hIgG+) [9]: 45%
Kd [10]: 25.3 nM
koff [10]: 0.00639 s⁻¹
kon [10]: 253000 M⁻¹ s⁻¹
B1: human-mouse chimeric TNFR2 monoclonal antibody 7F2-hFc (antibody, V domains shown)
VH: QVTLKESGPGILQPSQTLSLTCSFSGFSLNTFGLGVGWIRQPSGKGLEWLTHIWWNDDKYYNPALKSRLTISRDTSENLVFLKIANVDTADTATYYCARIEGLRRFDYWGQGTTLTVSS
VL: DIQMTQSPSSLSASLGGKVTITCKTSQDINKFIAWYQHKPGKGPRLLIHYTSTLQPGIPSRFSGSGSGRDYSFSISDLEPEDIATYYCLQYANLWAFGGGTKLEIK
notes: Mouse V regions of clone 7F2 with human constant regions

EC50 [3]: 14.2 µg/mL
IC50 [4]: 0.648 µg/mL and 4.34 nM
EC50 [6]: 0.037 µg/mL
EC50 [7]: 0.248 nM
percent of cells in the upper right quadrant (Q1-UR, CD3+ and anti-human IgG Fc+) [11]: 13.6%
IC50 [8]: 0.642 µg/mL
Kd [10]: 16.3 nM
koff [10]: 0.00469 s⁻¹
kon [10]: 289000 M⁻¹ s⁻¹
B2: human-mouse chimeric TNFR2 monoclonal antibody 29A1-hFc (antibody, V domains shown)
VH: QVQLQQSGAEVVRPGASVTLSCKASGYTFSDYEMHWVKQTPVHGLEWIGAIDPETGDTAYNQKFKDKARVTADKSSSTAYMELRSLTSEDSAVYYCTRDIHYYGSSLSYFDYWGQGTTLTVSS
VL: DIVMTQSQKFMSTSVGDRVSVTCKASQNVGTNVAWYQQKPGQSPKVMIYSASYRYSGAPDRFTGSGSGTDFTLTVNNVQSEDLAEYFCQQYKTYPYTFGGGTKLEIE
notes: Mouse V regions of clone 29A1 with human constant regions

binding result [1]: no binding
percent of cells in the upper right quadrant (Q2-UR, mCD3+ and anti-hIgG+) [1]: 1.02%
EC50 [2]: 0.66 µg/mL
EC50 [3]: 0.658 µg/mL
EC50 [12]: 0.142 µg/mL
EC50 [6]: 0.0475 µg/mL
EC50 [7]: 0.318 nM
Kd [13]: 17.3 nM
koff [13]: 0.00156 s⁻¹
kon [13]: 90500 M⁻¹ s⁻¹
EC50 [14]: 0.951 nM
percent of cells in the upper right quadrant (Q2-UR, mCD3+ and anti-hIgG+) [9]: 43.6%
Kd [10]: 21.9 nM
koff [10]: 0.00286 s⁻¹
kon [10]: 131000 M⁻¹ s⁻¹
EC50 [15]: 0.0782 µg/mL and 0.524 nM
B3: human-mouse chimeric TNFR2 monoclonal antibody 33C12-hFc (antibody, V domains shown)
VH: DVKLVESGGGLVKPGGSLKLSCAASGFTFSDYTMSWVRQTPEKRLEWVATISTGGSYTYYPDSVKGRFTISRDNAKNTLYLQMSSLKSEDTAMYYCTRDGGYDGDYFDYWGQGTTLTVSS
VL: ENVLTQSPAIMSASPGEKVTMTCRASSSVSSSYLHWYQQKSGASPKLWIYRTSNLASGVPARFSGSGSGTSYSLTISSVEAEDAATYYCQQYSGYPLTFGAGTRLELK
notes: Mouse V regions of clone 33C12 with human constant regions; also called human-mouse chimeric 33C12 antibody

Reference: patent US20240392024A1 (SHANGHAI CELGEN BIO PHARMACEUTICAL, published 2024)
